Measured values: paper PMC9961634

Legend:
[1] = molecular target: Beta vulgaris ssp. vulgaris phytoglobin type 1.2 (BvPgb1.2) (Beta vulgaris spp. vulgaris); assay: NMR 15N relaxation (rotational correlation time from R2/R1, ROTDIF, compared with HYDRONMR values for monomeric and dimeric structures); CN-bound BvPgb1.2, 1 mM protein in 50 mM MOPS pH 7.4, 8% D2O, 298 K, 14.1 T; monomer to dimer
[2] = molecular target: Beta vulgaris ssp. vulgaris phytoglobin type 1.2 (BvPgb1.2) (Beta vulgaris spp. vulgaris); assay: SEC; analytical size exclusion chromatography of the purified protein samples; conditions not given (ref. 23)
Hb1 (Oryza sativa) = Hb1 (Oryza sativa) (UniProt O04986); conditions: cited from earlier work

Substance	stoichiometry N [1]	stoichiometry N [2]	Kd (Hb1 (Oryza sativa)) [µM]
Beta vulgaris ssp. vulgaris phytoglobin type 1.2 (BvPgb1.2) (natural protein)	2	2	
Hb1 (from UniProt O04986)			86
